# Test results: the supplement of paper PMC5998384
# Tests used:
# HeLa Kyoto [1] = experiment: solubility in G1/S (NP-40 vs SDS abundance) (log2 ratio); higher = more soluble; conditions: cell cycle stage: G1/S
# HeLa Kyoto [2] = experiment: solubility change mitosis vs G1/S (difference of NP-40 vs SDS log2 ratios) (log2 ratio difference); higher = more soluble in mitosis
# HeLa Kyoto [3] = experiment: thermal stability score vs G1/S (z-score of summed log2 fold changes over temperatures); higher = more thermally stable than in G1/S
# [4] = cell cycle stage: early G1 (4.5 h after nocodazole release)
# 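For solubility change mitosis vs G1/S (difference of NP-40 vs SDS log2 ratios) in this document: synchronized HeLa Kyoto cells (double thymidine block for G1/S, nocodazole release for mitosis), protein amounts in NP-40 versus SDS lysates quantified by mass spectrometry, three biological replicates.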
# 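For solubility in G1/S (NP-40 vs SDS abundance) in this document: HeLa Kyoto cells arrested at G1/S by double thymidine block, proteins quantified by TMT10plex mass spectrometry in mild NP-40 versus SDS extracts, three biological replicates.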
# 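For thermal stability score vs G1/S (z-score of summed log2 fold changes over temperatures) in this document: synchronized HeLa Kyoto cells, proteins quantified by TMT10plex mass spectrometry, three biological replicates, mitosis taken 0.5 h after nocodazole release, G1/S directly after double thymidine block.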
Sequence,solubility in G1/S (log2) (HeLa Kyoto [1]),solubility change mitosis (log2) (HeLa Kyoto [2]),thermal stability score (HeLa Kyoto [3]; [4]),thermal stability score (HeLa Kyoto [3]; cell cycle stage: mitosis)
MGLSAAAPLWGPPGLLLAIALHPALSVPPRRDYCVLGAGPAGLQMAYFLQRAGRDYAVFERAPRPGSFFTRYPRHRKLISINKRYTGKANAEFNLRHDWNSLLSHDPRLLFRHYSRAYFPDARDMVRYLGDFADTLGLRVQYNTTIAHVTLDKDRQAWNGHYFILTDQKGQVHQCSVLFVATGLSVPNQVDFPGSEYAEGYESVSVDPEDFVGQNVLILGRGNSAFETAENILGVTNFIHMLSRSRVRLSWATHYVGDLRAINNGLLDTYQLKSLDGLLESDLTDLAILKDSKGKFHVTPKFFLEEANTNQSADSITLPQDDNDNFAMRVPYDRVIRCLGWNFDFSIFNKSLRLNSGNAFGKKYPLIRASYESKGSRGLFILGTASHSVDYRKSAGGFIHGFRYTVRAVHRLLEHRHHSVTWPATELPITQLTSSIVRRVNEASGLYQMFGVLADVILLKENSTAFEYLEEFPIQMLAQLETLTGRKAKHGLFVINMEYGRNFSGPDKDVFFDDRSVGHTEDAWQSNFLHPVIYYYRYLPTEQEVRFRPAHWPLPRPTAIHHIVEDFLTDWTAPIGHILPLRRFLENCLDTDLRSFYAESCFLFALTRQKLPPFCQQGYLRMQGLVSTESLWQHRVESRLLRDYAPTGRRLEDSSQQLGDQEPLGSPLAPGPLAQSVDSNKEEL [FOXRED2],-0.0337,0.00992,0.289,1.28
MGSENSALKSYTLREPPFTLPSGLAVYPAVLQDGKFASVFVYKRENEDKVNKAAKHLKTLRHPCLLRFLSCTVEADGIHLVTERVQPLEVALETLSSAEVCAGIYDILLALIFLHDRGHLTHNNVCLSSVFVSEDGHWKLGGMETVCKVSQATPEFLRSIQSIRDPASIPPEEMSPEFTTLPECHGHARDAFSFGTLVESLLTILNEQVSADVLSSFQQTLHSTLLNPIPKCRPALCTLLSHDFFRNDFLEVVNFLKSLTLKSEEEKTEFFKFLLDRVSCLSEELIASRLVPLLLNQLVFAEPVAVKSFLPYLLGPKKDHAQGETPCLLSPALFQSRVIPVLLQLFEVHEEHVRMVLLSHIEAYVEHFTQEQLKKVILPQVLLGLRDTSDSIVAITLHSLAVLVSLLGPEVVVGGERTKIFKRTAPSFTKNTDLSLEDSPMCVVCSHHSQISPILENPFSSIFPKCFFSGSTPINSKKHIQRDYYNTLLQTGDPFSQPIKFPINGLSDVKNTSEDSENFPSSSKKSEEWPDWSEPEEPENQTVNIQIWPREPCDDVKSQCTTLDVEESSWDDCEPSSLDTKVNPGGGITATKPVTSGEQKPIPALLSLTEESMPWKSSLPQKISLVQRGDDADQIEPPKVSSQERPLKVPSELGLGEEFTIQVKKKPVKDPEMDWFADMIPEIKPSAAFLILPELRTEMVPKKDDVSPVMQFSSKFAAAEITEGEAEGWEEEGELNWEDNNW [SCYL3],-0.0689,-0.0596,0.969,0.364
MKCEHCTRKECSKKTKTDDQENVSADAPSPAQENGEKGEFHKLADAKIFLSDCLACDSCMTAEEGVQLSQQNAKDFFRVLNLNKKCDTSKHKVLVVSVCPQSLPYFAAKFNLSVTDASRRLCGFLKSLGVHYVFDTTIAADFSILESQKEFVRRYRQHSEEERTLPMLTSACPGWVRYAERVLGRPITAHLCTAKSPQQVMGSLVKDYFARQQNLSPEKIFHVIVAPCYDKKLEALQESLPPALHGSRGADCVLTSGEIAQIMEQGDLSVRDAAVDTLFGDLKEDKVTRHDGASSDGHLAHIFRHAAKELFNEDVEEVTYRALRNKDFQEVTLEKNGEVVLRFAAAYGFRNIQNMILKLKKGKFPFHFVEVLACAGGCLNGRGQAQTPDGHADKALLRQMEGIYADIPVRRPESSAHVQELYQEWLEGINSPKAREVLHTTYQSQERGTHSLDIKW [NARF],0.474,-0.273,-0.279,-0.0946
MKEGRGSFSVERGPRKERETAQSGMWKGNSPAGSQGAAMEGTGGELGGQGNWGPEDAPGLLARASLIMLPWPLPLASSALTLLFGALTSLFLWYCYRLGSQDMQALGAGSRAGGVRGGPVGCSEAGGPSPGGPGDPGEGPRTEGLVSRRLRAYARRYSWAGMGRVRRAAQGGPGPGRGPGVLGIQRPGLLFLPDLPSAPFVPRDAQRHDVELLESSFPAILRDFGAVSWDFSGTTPPPRGWSPPLAPGCYQLLLYQAGRCQPSNCRRCPGAYRALRGLRSFMSANTFGNAGFSVLLPGARLEGRCGPTNARVRCHLGLKIPPGCELVVGGEPQCWAEGHCLLVDDSFLHTVAHNGSPEDGPRVVFIVDLWHPNVAGAERQALDFVFAPDP [ASPHD1],0.213,-0.229,1.03,1.87
MKHINLSFAACGFLGIYHLGAASALCRHGKKLVKDVKAFAGASAGSLVASVLLTAPEKIEECNQFTYKFAEEIRRQSFGAVTPGYDFMARLRSGMESILPPSAHELAQNRLHVSITNAKTRENHLVSTFSSREDLIKVLLASSFVPIYAGLKLVEYKGQKWVDGGLTNALPILPVGRTVTISPFSGRLDISPQDKGQLDLYVNIAKQDIMLSLANLVRLNQALFPPSKRKMESLYQCGFDDTVKFLLKENWFE [PNPLA4],0.107,-0.145,0.304,1.11
MLLAQINRDSQGMTEFPGGGMEAQHVTLCLTEAVTVADGDNLENMEGVSLQAVTLADGSTAYIQHNSKDAKLIDGQVIQLEDGSAAYVQHVPIPKSTGDSLRLEDGQAVQLEDGTTAFIHHTSKDSYDQSALQAVQLEDGTTAYIHHAVQVPQSDTILAIQADGTVAGLHTGDATIDPDTISALEQYAAKVSIDGSESVAGTGMIGENEQEKKMQIVLQGHATRVTAKSQQSGEKAFRCEYDGCGKLYTTAHHLKVHERSHTGDRPYQCEHAGCGKAFATGYGLKSHVRTHTGEKPYRCSEDNCTKSFKTSGDLQKHIRTHTGERPFKCPFEGCGRSFTTSNIRKVHVRTHTGERPYYCTEPGCGRAFASATNYKNHVRIHTGEKPYVCTVPGCDKRFTEYSSLYKHHVVHTHSKPYNCNHCGKTYKQISTLAMHKRTAHNDTEPIEEEQEAFFEPPPGQGEDVLKGSQITYVTGVEGDDVVSTQVATVTQSGLSQQVTLISQDGTQHVNISQADMQAIGNTITMVTQDGTPITVPAHDAVISSAGTHSVAMVTAEGTEGEQVAIVAQDLAAFHTASSEMGHQQHSHHLVTTETRPLTLVATSNGTQIAVQLGEQPSLEEAIRIASRIQQGETPGLDD [ZNF143],-0.143,0.313,0.385,0.819
MLLWPLRGWAARALRCFGPGSRGSPASGPGPRRVQRRAWPPDKEQEKEKKSVICVEGNIASGKTTCLEFFSNATDVEVLTEPVSKWRNVRGHNPLGLMYHDASRWGLTLQTYVQLTMLDRHTRPQVSSVRLMERSIHSARYIFVENLYRSGKMPEVDYVVLSEWFDWILRNMDVSVDLIVYLRTNPETCYQRLKKRCREEEKVIPLEYLEAIHHLHEEWLIKGSLFPMAAPVLVIEADHHMERMLELFEQNRDRILTPENRKHCP [TK2],-0.273,0.0925,-2.93,-2.11
MLRGPWRQLWLFFLLLLPGAPEPRGASRPWEGTDEPGSAWAWPGFQRLQEQLRAAGALSKRYWTLFSCQVWPDDCDEDEEAATGPLGWRLPLLGQRYLDLLTTWYCSFKDCCPRGDCRISNNFTGLEWDLNVRLHGQHLVQQLVLRTVRGYLETPQPEKALALSFHGWSGTGKNFVARMLVENLYRDGLMSDCVRMFIATFHFPHPKYVDLYKEQLMSQIRETQQLCHQTLFIFDEAEKLHPGLLEVLGPHLERRAPEGHRAESPWTIFLFLSNLRGDIINEVVLKLLKAGWSREEITMEHLEPHLQAEIVETIDNGFGHSRLVKENLIDYFIPFLPLEYRHVRLCARDAFLSQELLYKEETLDEIAQMMVYVPKEEQLFSSQGCKSISQRINYFLS [TOR3A],0.0484,-0.118,2.36,1.03
MNPTETKAIPVSQQMEGPHLPNKKKHKKQAVKTEPEKKSQSTKLSVVHEKKSQEGKPKEHTEPKSLPKQASDTGSNDAHNKKAVSRSAEQQPSEKSTEPKTKPQDMISAGGESVAGITAISGKPGDKKKEKKSLTPAVPVESKPDKPSGKSGMDAALDDLIDTLGGPEETEEENTTYTGPEVSDPMSSTYIEELGKREVTIPPKYRELLAKKEGITGPPADSSKPIGPDDAIDALSSDFTCGSPTAAGKKTEKEESTEVLKAQSAGTVRSAAPPQEKKRKVEKDTMSDQALEALSASLGTRQAEPELDLRSIKEVDEAKAKEEKLEKCGEDDETIPSEYRLKPATDKDGKPLLPEPEEKPKPRSESELIDELSEDFDRSECKEKPSKPTEKTEESKAAAPAPVSEAVCRTSMCSIQSAPPEPATLKGTVPDDAVEALADSLGKKEADPEDGKPVMDKVKEKAKEEDREKLGEKEETIPPDYRLEEVKDKDGKPLLPKESKEQLPPMSEDFLLDALSEDFSGPQNASSLKFEDAKLAAAISEVVSQTPASTTQAGAPPRDTSQSDKDLDDALDKLSDSLGQRQPDPDENKPMEDKVKEKAKAEHRDKLGERDDTIPPEYRHLLDDNGQDKPVKPPTKKSEDSKKPADDQDPIDALSGDLDSCPSTTETSQNTAKDKCKKAASSSKAPKNGGKAKDSAKTTEETSKPKDD [CAST],0.36,0.0186,-1.5,-2.61
MPDIIWVFPPQAEAEEDCHSDTVRADDDEENESPAETDLQAQLQMFRAQWMFELAPGVSSSNLENRPCRAARGSLQKTSADTKGKQEQAKEEKARELFLKAVEEEQNGALYEAIKFYRRAMQLVPDIEFKITYTRSPDGDGVGNSYIEDNDDDSKMADLLSYFQQQLTFQESVLKLCQPELESSQIHISVLPMEVLMYIFRWVVSSDLDLRSLEQLSLVCRGFYICARDPEIWRLACLKVWGRSCIKLVPYTSWREMFLERPRVRFDGVYISKTTYIRQGEQSLDGFYRAWHQVEYYRYIRFFPDGHVMMLTTPEEPQSIVPRLRTRNTRTDAILLGHYRLSQDTDNQTKVFAVITKKKEEKPLDYKYRYFRRVPVQEADQSFHVGLQLCSSGHQRFNKLIWIHHSCHITYKSTGETAVSAFEIDKMYTPLFFARVRSYTAFSERPL [FBXO9],-0.365,0.156,0.568,0.333
MPFLHGFRRIIFEYQPLVDAILGSLGIQDPERQESLDRPSYVASEESRILVLTELLERKAHSPFYQEGVSNALLKMAELGLTRAADVLLRHGANLNFEDPVTYYTALHIAVLRNQPDMVELLVHHGADVNRRDRIHESSPLDLASEEPERLPCLQRLLDLGADVNAADKHGKTALLHALASSDGVQIHNTENIRLLLEGGADVKATTKDGDTVFTCIIFLLGETVGGDKEEAQMINRFCFQVTRLLLAHGADPSECPAHESLTHICLKSFKLHFPLLRFLLESGAAYNCSLHGASCWSGFHIIFERLCSHPGCTEDESHADLLRKAETVLDLMVTNSQKLQLPENFDIHPVGSLAEKIQALHFSLRQLESYPPPLKHLCRVAIRLYLQPWPVDVKVKALPLPDRLKWYLLSEHSGSVEDDI [ASB6],0.206,0.0228,0.0535,0.637
MPGRSSSNSGSTGFISFSGVESALSSLKNFQACINSGMDTASSVALDLVESQTEVSSEYSMDKAMVEFATLDRQLNHYVKAVQSTINHVKEERPEKIPDLKLLVEKKFLALQSKNSDADFQNNEKFVQFKQQLKELKKQCGLQADREADGTEGVDEDIIVTQSQTNFTCPITKEEMKKPVKNKVCGHTYEEDAIVRMIESRQKRKKKAYCPQIGCSHTDIRKSDLIQDEALRRAIENHNKKRHRHSE [NSMCE2],-0.0327,0.0514,-0.691,-0.266
